The record followed here is publication PMC4339810 (Scientific Reports, 2015).

T1: HMGA2 (UniProt P52926 1-109)
T1 sequence: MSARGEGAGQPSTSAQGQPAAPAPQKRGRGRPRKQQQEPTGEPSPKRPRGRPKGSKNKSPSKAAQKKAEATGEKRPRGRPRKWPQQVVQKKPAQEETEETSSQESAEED

B1: recombinant HMGA1b (natural protein, UniProt P17096-2 1-96, looked up)
chain: MSESSSKSSQPLASKQEKDGTEKRGRGRPRKQPPKEPSEVPTPKRPRGRPKGSKNKGAAKTRKTTTTPGRKPRGRPKKLEKEEEEGISQESSEEEQ
notes: HMGA1b, isoform of HMGA1 from alternative splicing
B2: GST-NPM1 117-186 (domain or fragment, UniProt P06748 117-186, looked up)
chain: VAVEEDAESEDEEEEDVKLLSISGKRSAPGGGSKVPQKKVKLAADEDDDDDDEEDDDEDDDDDDFDDEEA
notes: also called central portion of NPM1 containing the two acidic clusters (A2 and A3)
B3: recombinant HMGA1a (natural protein, UniProt P17096-1 1-107, looked up)
chain: MSESSSKSSQPLASKQEKDGTEKRGRGRPRKQPPVSPGTALVGSQKEPSEVPTPKRPRGRPKGSKNKGAAKTRKTTTTPGRKPRGRPKKLEKEEEEGISQESSEEEQ
notes: HMGA1a, isoform of HMGA1 from alternative splicing
B4: HCRII (dsDNA)
DNA 1: GACACATTAATCTATAATCAAATA
DNA 2: TATTTGATTATAGATTAATGTGTC
B5: E3 (dsDNA)
DNA 1: AGAAAAACTCCATCTAAAAAAAAAAAAAAAAAAAAAAAAAAACA
DNA 2: TGTTTTTTTTTTTTTTTTTTTTTTTTTTTAGATGGAGTTTTTCT

The target of data set [1] is T2, GST-NPM1 1-295 (full length) (UniProt P06748 1-294).
T2 construct: nucleophosmin (NPM1), printed as full length (1-295); Plasmid provided by P.G. Pelicci; pGEX 4T3 GST-NPM1 1-295 is named as the PCR template; also called full-length GST-NPM1; GST-fused NPM1 full length (1-295); source: for EMSA eluted from Glutathione Sepharose 4B
Put plainly: pull-down; GST-fused NPM1 forms as bait with recombinant HMGA proteins; bound proteins seen by western blot with anti-HMGA1 and anti-HMGA2 antibodies. The conditions noted are these: both partners purified.

Data set [2] addresses T3, GST-NPM1 1-259 (UniProt P06748 1-259).
T3 construct: nucleophosmin (NPM1), residues 1-259; Plasmid provided by P.G. Pelicci
The data set is described as above. The settings on record: both partners purified.

The target in data set [3] is T4, GST-NPM1 1-186 (UniProt P06748 1-186).
T4 construct: Plasmid provided by P.G. Pelicci
The description is as above. The settings on record: both partners purified.

Data set [4] has as its target B3. Described as above. The conditions noted are these: both partners purified.
The target of data set [5] is B1. Described as above. The conditions noted are these: both partners purified.
Data set [6] concerns the target T1, HMGA2. The data set can be described thus: EMSA; no NPM1; EMSA: 4 pmol HMGA preincubated 10 min at 4°C with GST-NPM1/GST in 25 mM Tris/HCl pH 8, 5 mM GSH (8 uL); then 0.1 pmol DNA for 10 min in 180 mM NaCl, 1 mM MgCl2.
Data set [7] has as its target T5, HMGA1a (UniProt P17096 1-107). Described as above.
For data set [8], the target named is T5, HMGA1a. Put plainly: EMSA; no NPM1; two complexes; EMSA: 4 pmol HMGA preincubated 10 min at 4°C with GST-NPM1/GST in 25 mM Tris/HCl pH 8, 5 mM GSH (8 uL); then 0.1 pmol DNA for 10 min in 180 mM NaCl, 1 mM MgCl2.

T2 sequence (P06748 whole entry, the tested form may be a part): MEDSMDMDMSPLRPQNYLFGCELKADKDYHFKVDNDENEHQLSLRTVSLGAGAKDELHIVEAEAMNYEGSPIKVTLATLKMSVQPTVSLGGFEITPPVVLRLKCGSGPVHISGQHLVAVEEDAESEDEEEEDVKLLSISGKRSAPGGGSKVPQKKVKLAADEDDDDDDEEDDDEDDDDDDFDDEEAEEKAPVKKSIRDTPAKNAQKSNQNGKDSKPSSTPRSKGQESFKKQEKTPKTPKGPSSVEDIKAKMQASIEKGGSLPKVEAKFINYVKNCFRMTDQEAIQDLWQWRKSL
T3 sequence (P06748 1-259): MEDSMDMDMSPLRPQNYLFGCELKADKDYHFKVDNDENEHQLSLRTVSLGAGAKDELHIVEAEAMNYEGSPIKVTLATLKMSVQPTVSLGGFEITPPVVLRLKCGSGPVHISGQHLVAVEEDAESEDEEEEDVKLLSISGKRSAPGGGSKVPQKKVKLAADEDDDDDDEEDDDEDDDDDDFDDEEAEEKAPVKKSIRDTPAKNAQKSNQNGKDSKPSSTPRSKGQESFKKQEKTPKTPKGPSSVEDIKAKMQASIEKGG

As for B1, the binding result in data set [1], in data set [2] and in data set [3] was “binds” in each case.
For the molecule B2, the binding result in data set [4] and in data set [5] was “binds” in each case.
In the case of B3, the binding result in data set [1], in data set [2] and in data set [3] was “binds” each time.
In the case of B4, the binding result in data set [6] and in data set [7] was “binds” throughout.
On to B5, for which, in data set [8], the binding result is listed as “binds”.
